Patent US20210115152A1 (ARBELE, published 2021)

Legend:
CD3 on Jurkat T cells = CD3 on Jurkat T cells (UniProt P07766 23-207); test: cell-based or functional assay
[1] = target: T1, CDH17 on tumor cells (DLD-1, AGS, AsPC1, CDH17-positive pancreatic and colon lines, SW40 with ectopic CDH17) (UniProt Q12864 23-832, limits assumed); test: cell-based or functional assay
T1 sequence (looked up): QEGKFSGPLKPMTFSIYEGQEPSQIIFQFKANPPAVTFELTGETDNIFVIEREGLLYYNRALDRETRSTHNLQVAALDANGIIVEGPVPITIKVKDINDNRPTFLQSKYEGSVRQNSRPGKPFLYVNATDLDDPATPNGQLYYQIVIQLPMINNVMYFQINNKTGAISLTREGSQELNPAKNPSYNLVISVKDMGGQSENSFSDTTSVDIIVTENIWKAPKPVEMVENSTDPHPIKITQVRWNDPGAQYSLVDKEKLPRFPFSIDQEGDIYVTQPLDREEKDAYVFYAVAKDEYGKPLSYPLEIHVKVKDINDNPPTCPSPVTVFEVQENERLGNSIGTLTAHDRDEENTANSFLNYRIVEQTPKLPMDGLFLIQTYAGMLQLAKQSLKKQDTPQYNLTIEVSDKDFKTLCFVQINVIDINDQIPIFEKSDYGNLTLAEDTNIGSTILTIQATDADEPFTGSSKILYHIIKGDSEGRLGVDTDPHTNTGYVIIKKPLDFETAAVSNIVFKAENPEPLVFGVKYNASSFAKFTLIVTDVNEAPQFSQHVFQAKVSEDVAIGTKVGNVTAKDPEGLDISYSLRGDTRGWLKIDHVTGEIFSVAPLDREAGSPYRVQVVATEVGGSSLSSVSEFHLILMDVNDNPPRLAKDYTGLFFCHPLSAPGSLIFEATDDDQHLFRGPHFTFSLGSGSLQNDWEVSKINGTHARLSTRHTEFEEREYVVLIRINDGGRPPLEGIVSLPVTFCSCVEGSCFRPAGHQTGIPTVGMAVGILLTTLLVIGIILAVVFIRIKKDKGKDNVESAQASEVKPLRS

CD3 on Jurkat T cells, sequence (P07766 23-207): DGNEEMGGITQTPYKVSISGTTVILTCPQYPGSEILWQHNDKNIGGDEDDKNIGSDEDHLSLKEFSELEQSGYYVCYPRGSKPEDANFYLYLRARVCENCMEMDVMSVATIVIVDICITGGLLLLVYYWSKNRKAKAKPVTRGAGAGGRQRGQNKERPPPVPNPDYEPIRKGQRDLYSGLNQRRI

B1: h10G4fL (h10G4U1fL; ARB202), CDH17xCD3 bispecific antibody of the IgG-scFv / fL design, IgG4 (bispecific antibody)
heavy: EVQLVESGGGLVQPGGSLRLSCAASGFTFSSYAMSWVRQTPGKGLEWVAVIDSNGGSTYYPDTVKDRFTISRDNSKNTLYLQMNSLRAEDTAVYYCSSYTNLGAYWGQGTLVTVSSASTKGPSVFPLAPSSKSTSGGTAALGCLVKDYFPEPVTVSWNSGALTSGVHTFPAVLQSSGLYSLSSVVTVPSSSLGTQTYICNVNHKPSNTKVDKRVEPKSCDKTHTCPPCPAPELLGGPSVFLFPPKPKDTLMISRTPEVTCVVVDVSQEDPEVQFNWYVDGVEVHNAKTKPREEQFNSTYRVVSVLTVLHQDWLNGKEYKCKVSNKGLPSSIEKTISKAKGQPREPQVYTLPPSQEEMTKNQVSLTCLVKGFYPSDIAVEWESNGQPENNYKTTPPVLDSDGSFFLYSRLTVDKSRWQEGNVFSCSVMHEALHNHYTQKSLSLSLGKPAGGGGSEVQLVESGGGLVQPGGSLRLSCAASGYSFTGYTMNWVRQAPGKGLEWVALINPYKGVSTYNQKFKDRFTISVDKSKNTAYLQMNSLRAEDTAVYYCARSGYYGDSDWYFDVWGQGTLVTVSSGGGGSGGGGSGGGGSDIQMTQSPSSLSASVGDRVTITCRASQDIRNYLNWYQQKPGKAPKLLIYYTSRLESGVPSRFSGSGSGTDYTLTISSLQPEDFATYYCQQGNTLPWTFGQGTKVEIK
light: DIQMTQSPSSLSASVGDRVTITCRASQDISGYLNWLQQKPGGAIKRLIYTTSTLDSGVPKRFSGSGSGTDFTLTISSLQSEDFATYYCLQYASSPFTFGGGTKVEIKRTVAAPSVFIFPPSDEQLKSGTASVVCLLNNFYPREAKVQWKVDNALQSGNSQESVTEQDSKDSTYSLSSTLTLSKADYEKHKVYACEVTHQGLSSPVTKSFNRGEC
CD3 on Jurkat T cells
  EC50 of IL2 production by PBMC in the absence of AsPC1 tumor cells: ≥ 18.7 nM
[1]
  EC50 of IL2 production by PBMC in the presence of AsPC1 tumor cells (5:1, 16 hours): 0.03 nM
